Assay results: patent publication US20120121596A1 (published 2012)

Assays:
HER3-ECD-Fc [1] = target: T1, HER3-ECD-Fc (human, UniProt P21860 20-643, limits assumed); assay: phage solution binding competition ELISA; experiment of paragraph 433 (compared with DL3.1-3.7)
T1 construct: extracellular domain; also called HER3-FC; HER3-IgG

HER3-ECD-Fc [2] = target: T1, HER3-ECD-Fc; assay: phage solution binding competition ELISA as in Example 1, antigen in solution varied; experiment of paragraph 431 (compared with DL7 and DL11)
Description: (§1) IC₅₀ was calculated as the concentration of antigen in solution-binding stage that inhibited 50% of the phage from binding to immobilized antigen. The solution binding competition ELISA was performed at room temperature.

hEGFR-ECD = target: T2, hEGFR-ECD (human, UniProt P00533 25-645); assay: phage solution binding competition ELISA as in Example 1, antigen in solution varied
T2 construct: extracellular domain
Description: as §1

HER4-ECD-Fc = target: T3, HER4-ECD-Fc (human, UniProt Q15303 26-651, limits assumed); assay: direct phage ELISA, proteins coated at 2 µg/ml, phage-Fab supernatant, OD450;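 further: specificity test of dual-activity clones, with binding assessed across an antigen panel to check whether each recognises only its cognate target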
T3 construct: extracellular domain
T3 sequence (looked up): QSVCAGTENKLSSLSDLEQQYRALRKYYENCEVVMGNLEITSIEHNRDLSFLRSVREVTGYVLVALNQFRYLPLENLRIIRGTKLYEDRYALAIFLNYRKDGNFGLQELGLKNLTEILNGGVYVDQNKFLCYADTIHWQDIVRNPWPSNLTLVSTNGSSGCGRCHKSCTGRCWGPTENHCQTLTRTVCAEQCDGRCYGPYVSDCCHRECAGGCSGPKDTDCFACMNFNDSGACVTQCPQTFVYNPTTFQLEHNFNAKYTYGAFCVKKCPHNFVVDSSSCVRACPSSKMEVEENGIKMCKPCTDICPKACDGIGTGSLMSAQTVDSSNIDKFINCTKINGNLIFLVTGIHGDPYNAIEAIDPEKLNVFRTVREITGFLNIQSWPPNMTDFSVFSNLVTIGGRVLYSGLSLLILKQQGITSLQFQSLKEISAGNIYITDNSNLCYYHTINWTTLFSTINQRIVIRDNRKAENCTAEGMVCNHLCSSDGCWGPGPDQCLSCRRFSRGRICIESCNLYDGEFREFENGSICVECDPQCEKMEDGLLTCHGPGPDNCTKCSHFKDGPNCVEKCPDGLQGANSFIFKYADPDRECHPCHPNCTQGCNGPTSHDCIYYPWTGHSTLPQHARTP
Description: (§2) To determine if the nine clones with dual activities were specific to their cognate targets, their binding to a panel of antigens in a direct plate ELISA format was evaluated.
(§3) 2 μg/ml of several proteins were coated on immunoplates overnight at 4° C.

HER2-ECD = target: T4, HER2-ECD (human, UniProt P04626 23-652); assay: as above
T4 construct: extracellular domain
Description: as §2, §3

BSA = target: T5, BSA (bovine, UniProt P02769); assay: as above
T5 construct: also called bovine serum albumin
T5 sequence (P02769 25-607 limits assumed): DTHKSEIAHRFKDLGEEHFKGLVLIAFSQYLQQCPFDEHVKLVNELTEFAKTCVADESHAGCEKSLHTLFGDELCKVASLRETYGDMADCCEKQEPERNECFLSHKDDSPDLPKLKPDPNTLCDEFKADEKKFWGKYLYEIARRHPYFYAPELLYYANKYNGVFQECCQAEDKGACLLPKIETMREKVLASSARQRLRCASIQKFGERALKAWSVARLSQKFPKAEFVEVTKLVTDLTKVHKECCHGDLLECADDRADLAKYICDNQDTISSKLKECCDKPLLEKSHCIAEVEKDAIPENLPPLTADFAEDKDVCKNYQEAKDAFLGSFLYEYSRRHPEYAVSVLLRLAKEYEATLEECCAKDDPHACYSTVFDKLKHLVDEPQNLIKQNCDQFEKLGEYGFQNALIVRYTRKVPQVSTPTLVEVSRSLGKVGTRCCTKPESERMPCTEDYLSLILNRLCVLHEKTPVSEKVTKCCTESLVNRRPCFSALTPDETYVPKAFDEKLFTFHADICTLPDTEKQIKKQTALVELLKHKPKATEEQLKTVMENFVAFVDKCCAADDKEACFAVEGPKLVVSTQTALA
Description: as §2, §3

B1: D1.5-100 (phage-displayed Fab clone) (Fab, V domains shown)
VH: EVQLVESGGGLVQPGGSLRLSCAASGFTFTGNWIHWVRQAPGKGLEWVGEISPSGGYTDYADSVKGRFTISADTSKNTAYLQMNSLRAEDTAVYYCARESRVSYEAAMDYWGQGTLVTVSS
VL: DIQMTQSPSSLSASVGDRVTITCRASQDLATDVAWYQQKPGKAPKLLIYSASFLYSGVPSRFSGSGSGTDFTLTISSLQPEDFATYYCQQSEPEPYTFGQGTKVEIKR
notes: also called DL1.5-100
- IC50 (HER3-ECD-Fc [1]): 4.6 nM
- IC50 (HER3-ECD-Fc [2]): 0.1 nM
- IC50 (hEGFR-ECD): 44 nM
- binding result (HER4-ECD-Fc): no binding
- binding result (HER2-ECD): no binding
- binding result (BSA): no binding
